Tests used:
人CD3 = target: T1, 人CD3 (human, UniProt P07766 23-207); experiment: flow cytometry (FACS) on Jurkat cells, anti-human IgG Fc PE secondary
T1 construct: whole, on cells; Natural CD3 complex on Jurkat T cells (and CIK cells); also called Jurkat细胞表面人CD3分子

人ETA (内皮素受体A) = target: T2, 人ETA (内皮素受体A) (human, UniProt P25101 21-427); experiment: flow cytometry (FACS) on CHO-ETA cells, anti-human IgG Fc PE secondary
T2 construct: whole, on cells; The plasmid's ETA construct is not described further; also called CHO-ETA; CHO-ETA-EGFP
T2 sequence (looked up): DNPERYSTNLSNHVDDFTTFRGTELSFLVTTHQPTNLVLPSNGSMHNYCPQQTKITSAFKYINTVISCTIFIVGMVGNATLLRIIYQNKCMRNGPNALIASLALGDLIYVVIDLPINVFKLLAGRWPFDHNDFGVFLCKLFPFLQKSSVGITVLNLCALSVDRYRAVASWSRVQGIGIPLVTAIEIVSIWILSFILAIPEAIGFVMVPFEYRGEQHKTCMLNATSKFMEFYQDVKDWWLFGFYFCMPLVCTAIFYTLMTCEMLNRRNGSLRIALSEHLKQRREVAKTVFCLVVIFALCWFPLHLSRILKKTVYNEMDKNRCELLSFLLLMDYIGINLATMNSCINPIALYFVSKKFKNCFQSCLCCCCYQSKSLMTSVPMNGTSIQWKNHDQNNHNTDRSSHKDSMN

T1 sequence (P07766 23-207): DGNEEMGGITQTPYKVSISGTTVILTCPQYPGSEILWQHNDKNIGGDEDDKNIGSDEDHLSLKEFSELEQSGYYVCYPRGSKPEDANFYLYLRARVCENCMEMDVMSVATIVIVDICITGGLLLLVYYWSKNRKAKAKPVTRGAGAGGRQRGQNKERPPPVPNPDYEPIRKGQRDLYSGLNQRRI

B1: αETA(L5H5,SEQ NO ID:19+SEQ NO ID:20)/αCD3(L3H3,SEQ NO ID:15+SEQ NO ID:16)双特异性抗体 (bispecific antibody)
chain 1: QVTLKESGPTLVKPTQTLTLTCTFSGFSLTTSGLGVAWIRQPPGKALEWLAHIWSDGDTRYYPALKNRLTITKDTSKNQVVLTMTNMDPVDTATYYCAHMKDDSLYFDNWGQGTLVTVSS
chain 2: EIVLTQSPDFQSVTPKEKVTITCRASQNIGTSIHWYQQKPDQSPKLLIKYASKSISGVPSRFSGSGSGTDFTLTINSLEAEDAATYYCQHSYSFPWTFGQGTKVEIK
chain 3: EAVVTQEPSLTVSPGGTVTLTCRSSTGAVTTSNYANWVQQKPGQAPRGLIGGTNKRAPWTPARFSGSLLGGKAALTLSGAQPEDEAEYYCALWYSNLWVFGGGTKLTVL
chain 4: EVQLVESGGGLVQPGGSLRLSCAASGFTFNTYAMNWVRQAPGKGLEWVGRIRSKYNNYATYYADSVKDRFTISRDDSKNTLYLQMNSLRAEDTAVYYCVRHGNFGNSYVSWFAYWGQGTLVTVSS
- EC50 (人CD3): 10.7 nM
- EC50 (人ETA (内皮素受体A)): 3.51 nM
